Values belong to the substance of their own block, whether it stands above or below them.
Tests used:
[1] = molecular target: sdcb1_human SDCBP (UniProt O00560)
[2] = molecular target: tri23_human TRIM23 (UniProt P36406)
[3] = molecular target: prdc1_human PRTFDC1 (UniProt Q9NRG1)
[4] = molecular target: k1h1_human KRT31 (UniProt Q15323)
[5] = molecular target: rgs20_human RGS20 (UniProt O76081)
[6] = molecular target: gpix_human GP9 (UniProt P14770)
[7] = molecular target: grn_human GRN (UniProt P28799)
[8] = molecular target: trip6_human TRIP6 (UniProt Q15654)
[9] = molecular target: cryaa_human CRYAA (UniProt P02489)
[10] = molecular target: ei2ba_human EIF2B1 (UniProt Q14232)
[11] = molecular target: pygm_human PYGM (UniProt P11217)
[12] = molecular target: TSC22D1 (UniProt Q15714)
[13] = molecular target: gas7_human GAS7 (UniProt O60861)
[14] = molecular target: rpia_human RPIA (UniProt P49247)
[15] = molecular target: vac14_human VAC14 (UniProt Q08AM6)
[16] = molecular target: pnma5_human PNMA5 (UniProt Q96PV4)
[17] = molecular target: tolip_human TOLLIP (UniProt Q9H0E2)
[18] = molecular target: ncoa5_human NCOA5 (UniProt Q9HCD5)
[19] = molecular target: gnmt_human GNMT (UniProt Q14749)
[20] = molecular target: mif_human MIF (UniProt P14174)
[21] = molecular target: cdr2_human CDR2 (UniProt Q01850)
[22] = molecular target: prps2_human PRPS2 (UniProt P11908)
[23] = molecular target: actg_human ACTG1 (UniProt P63261)
[24] = molecular target: dnja3_human DNAJA3 (UniProt Q96EY1)
[25] = molecular target: birc2_human BIRC2 (UniProt Q13490)
[26] = molecular target: ndka_human NME1 (UniProt P15531)
[27] = molecular target: dhb14_human HSD17B14 (UniProt Q9BPX1)
[28] = molecular target: actb_human ACTB (UniProt P60709)
[29] = molecular target: kctd1_human KCTD1 (UniProt Q719H9)
[30] = molecular target: mbip1_human MBIP (UniProt Q9NS73)
[31] = molecular target: mtnb_human APIP (UniProt Q96GX9)
[32] = molecular target: nud14_human NUDT14 (UniProt O95848)
[33] = molecular target: lonf1_human LONRF1 (UniProt Q17RB8)
[34] = molecular target: ca050_human C1orf50 (UniProt Q9BV19)
[35] = molecular target: edad_human EDARADD (UniProt Q8WWZ3)
[36] = molecular target: CCDC102B (UniProt Q68D86)
[37] = molecular target: cdd_human CDA (UniProt P32320)
[38] = molecular target: pnma1_human PNMA1 (UniProt Q8ND90)
[39] = molecular target: frih_human FTH1 (UniProt P02794)
[40] = molecular target: lztl1_human LZTFL1 (UniProt Q9NQ48)
[41] = molecular target: thap1_human THAP1 (UniProt Q9NVV9)
[42] = molecular target: dctp1_human DCTPP1 (UniProt Q9H773)
[43] = molecular target: dtx2_human DTX2 (UniProt Q86UW9)
[44] = molecular target: rnf14_human RNF14 (UniProt Q9UBS8)
[45] = molecular target: rn115_human RNF115 (UniProt Q9Y4L5)
[46] = molecular target: trim1_human MID2 (UniProt Q9UJV3)
[47] = molecular target: otub1_human OTUB1 (UniProt Q96FW1)

Ubiquitin-conjugating enzyme E2 D4 (Homo sapiens), Q9Y2X8 G27S, sequence (Q9Y2X8 whole entry G27S): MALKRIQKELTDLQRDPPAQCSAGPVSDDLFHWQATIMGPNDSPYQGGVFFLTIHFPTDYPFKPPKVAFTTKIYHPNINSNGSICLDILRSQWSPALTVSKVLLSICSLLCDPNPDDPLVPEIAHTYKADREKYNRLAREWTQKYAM
FAD synthase (Homo sapiens), Q8NFF5 R228H, sequence (Q8NFF5 whole entry R228H): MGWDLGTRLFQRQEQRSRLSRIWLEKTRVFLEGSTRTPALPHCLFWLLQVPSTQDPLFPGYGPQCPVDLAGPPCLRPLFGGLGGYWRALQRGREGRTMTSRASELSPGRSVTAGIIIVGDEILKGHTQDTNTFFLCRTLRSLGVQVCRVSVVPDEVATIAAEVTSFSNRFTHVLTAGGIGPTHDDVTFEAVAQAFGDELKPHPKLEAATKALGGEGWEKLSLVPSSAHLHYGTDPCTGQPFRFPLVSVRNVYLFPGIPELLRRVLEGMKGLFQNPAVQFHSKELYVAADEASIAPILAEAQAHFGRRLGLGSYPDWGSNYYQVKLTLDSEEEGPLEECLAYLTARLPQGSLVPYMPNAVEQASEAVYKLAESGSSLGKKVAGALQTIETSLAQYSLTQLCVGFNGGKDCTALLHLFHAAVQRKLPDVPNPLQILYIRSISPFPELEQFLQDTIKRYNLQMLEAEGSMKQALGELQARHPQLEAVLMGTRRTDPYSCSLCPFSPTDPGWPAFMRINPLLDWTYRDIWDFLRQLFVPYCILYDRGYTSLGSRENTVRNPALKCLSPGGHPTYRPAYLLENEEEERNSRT
Homeobox protein Hox-A1 (Homo sapiens), P49639 S98R, sequence (P49639 whole entry S98R): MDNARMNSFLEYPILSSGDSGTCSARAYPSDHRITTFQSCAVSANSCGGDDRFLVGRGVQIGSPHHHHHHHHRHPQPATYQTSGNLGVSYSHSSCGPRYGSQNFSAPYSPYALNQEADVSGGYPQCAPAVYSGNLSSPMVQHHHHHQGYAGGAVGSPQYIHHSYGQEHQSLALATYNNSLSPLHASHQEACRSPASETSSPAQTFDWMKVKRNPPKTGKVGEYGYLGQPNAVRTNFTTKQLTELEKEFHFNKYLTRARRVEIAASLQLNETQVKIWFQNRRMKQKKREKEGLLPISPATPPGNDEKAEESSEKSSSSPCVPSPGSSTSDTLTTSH
dtx2_human DTX2, sequence (Q86UW9 whole entry): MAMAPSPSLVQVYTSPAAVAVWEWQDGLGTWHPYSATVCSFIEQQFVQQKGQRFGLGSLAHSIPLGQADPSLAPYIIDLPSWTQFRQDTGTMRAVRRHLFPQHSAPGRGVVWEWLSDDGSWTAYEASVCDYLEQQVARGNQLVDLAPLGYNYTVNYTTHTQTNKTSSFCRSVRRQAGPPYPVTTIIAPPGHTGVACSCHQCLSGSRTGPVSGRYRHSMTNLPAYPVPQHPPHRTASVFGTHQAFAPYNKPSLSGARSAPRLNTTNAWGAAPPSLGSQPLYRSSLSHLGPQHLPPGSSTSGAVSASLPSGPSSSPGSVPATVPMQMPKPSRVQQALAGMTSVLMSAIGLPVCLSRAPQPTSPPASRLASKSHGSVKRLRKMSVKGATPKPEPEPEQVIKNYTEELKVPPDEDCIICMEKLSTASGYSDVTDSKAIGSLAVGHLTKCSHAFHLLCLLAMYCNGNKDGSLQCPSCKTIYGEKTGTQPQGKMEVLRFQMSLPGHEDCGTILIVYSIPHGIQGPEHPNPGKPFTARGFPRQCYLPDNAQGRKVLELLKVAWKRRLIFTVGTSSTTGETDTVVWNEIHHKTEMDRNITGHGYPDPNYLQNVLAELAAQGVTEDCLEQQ
dctp1_human DCTPP1, sequence (Q9H773 whole entry): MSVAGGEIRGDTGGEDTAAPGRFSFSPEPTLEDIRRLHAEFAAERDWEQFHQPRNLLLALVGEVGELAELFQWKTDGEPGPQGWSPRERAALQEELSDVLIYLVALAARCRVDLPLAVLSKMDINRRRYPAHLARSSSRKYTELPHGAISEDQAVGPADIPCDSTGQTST
TSC22D1, sequence (Q15714 whole entry): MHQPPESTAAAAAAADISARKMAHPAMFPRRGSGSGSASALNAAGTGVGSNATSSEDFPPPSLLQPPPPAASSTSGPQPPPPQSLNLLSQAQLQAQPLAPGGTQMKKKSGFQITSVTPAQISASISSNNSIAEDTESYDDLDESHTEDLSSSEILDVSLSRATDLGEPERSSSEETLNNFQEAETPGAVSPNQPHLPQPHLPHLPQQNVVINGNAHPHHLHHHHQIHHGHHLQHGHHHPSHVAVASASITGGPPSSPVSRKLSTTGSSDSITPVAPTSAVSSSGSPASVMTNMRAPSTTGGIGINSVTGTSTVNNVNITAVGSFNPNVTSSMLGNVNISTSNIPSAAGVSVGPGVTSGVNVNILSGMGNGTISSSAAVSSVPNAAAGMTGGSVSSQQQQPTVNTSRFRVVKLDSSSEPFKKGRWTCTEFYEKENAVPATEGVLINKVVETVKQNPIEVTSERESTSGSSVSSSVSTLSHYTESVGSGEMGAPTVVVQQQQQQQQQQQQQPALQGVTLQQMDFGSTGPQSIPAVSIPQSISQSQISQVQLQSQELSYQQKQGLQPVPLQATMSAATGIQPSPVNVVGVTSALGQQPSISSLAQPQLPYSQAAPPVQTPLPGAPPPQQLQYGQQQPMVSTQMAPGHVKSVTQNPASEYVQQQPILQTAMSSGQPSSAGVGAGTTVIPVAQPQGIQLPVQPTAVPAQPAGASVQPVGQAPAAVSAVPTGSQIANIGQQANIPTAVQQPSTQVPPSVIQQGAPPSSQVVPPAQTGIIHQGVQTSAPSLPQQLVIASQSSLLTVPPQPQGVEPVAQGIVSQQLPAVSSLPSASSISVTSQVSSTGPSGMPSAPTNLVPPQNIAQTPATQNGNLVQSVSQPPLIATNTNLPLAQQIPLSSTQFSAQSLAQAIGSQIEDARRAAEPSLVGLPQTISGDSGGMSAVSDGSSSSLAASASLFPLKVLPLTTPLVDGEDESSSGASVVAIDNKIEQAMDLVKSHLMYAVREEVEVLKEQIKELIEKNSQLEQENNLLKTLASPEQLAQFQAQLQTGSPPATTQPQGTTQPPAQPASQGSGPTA
grn_human GRN, sequence (P28799 whole entry): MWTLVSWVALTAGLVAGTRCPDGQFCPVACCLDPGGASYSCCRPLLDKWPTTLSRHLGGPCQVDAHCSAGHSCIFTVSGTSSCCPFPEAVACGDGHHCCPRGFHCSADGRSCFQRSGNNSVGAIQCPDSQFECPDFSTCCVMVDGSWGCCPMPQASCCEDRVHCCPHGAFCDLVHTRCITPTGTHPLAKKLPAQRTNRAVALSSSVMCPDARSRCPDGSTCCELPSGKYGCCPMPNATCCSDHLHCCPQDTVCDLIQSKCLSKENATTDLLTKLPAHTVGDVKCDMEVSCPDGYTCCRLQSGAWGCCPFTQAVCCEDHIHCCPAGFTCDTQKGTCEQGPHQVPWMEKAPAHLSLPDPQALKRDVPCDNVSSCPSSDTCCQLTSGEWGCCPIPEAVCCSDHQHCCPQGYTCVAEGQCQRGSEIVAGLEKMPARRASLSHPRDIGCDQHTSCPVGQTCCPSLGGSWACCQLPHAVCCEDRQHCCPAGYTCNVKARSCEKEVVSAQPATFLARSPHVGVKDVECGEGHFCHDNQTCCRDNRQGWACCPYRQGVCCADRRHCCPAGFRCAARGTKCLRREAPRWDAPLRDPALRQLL
cdr2_human CDR2, sequence (Q01850 whole entry): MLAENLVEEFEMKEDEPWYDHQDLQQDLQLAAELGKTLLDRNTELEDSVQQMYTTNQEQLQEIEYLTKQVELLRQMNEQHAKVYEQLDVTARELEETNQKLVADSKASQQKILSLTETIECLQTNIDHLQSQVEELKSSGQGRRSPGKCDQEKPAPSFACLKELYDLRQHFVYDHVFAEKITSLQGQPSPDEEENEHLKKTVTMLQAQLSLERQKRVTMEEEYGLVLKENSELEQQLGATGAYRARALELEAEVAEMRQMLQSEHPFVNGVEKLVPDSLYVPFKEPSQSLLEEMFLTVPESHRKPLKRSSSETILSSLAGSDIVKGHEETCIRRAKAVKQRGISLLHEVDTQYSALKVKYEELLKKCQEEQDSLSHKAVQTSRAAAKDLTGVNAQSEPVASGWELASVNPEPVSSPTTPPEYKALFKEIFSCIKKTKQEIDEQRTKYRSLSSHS
gnmt_human GNMT, sequence (Q14749 whole entry): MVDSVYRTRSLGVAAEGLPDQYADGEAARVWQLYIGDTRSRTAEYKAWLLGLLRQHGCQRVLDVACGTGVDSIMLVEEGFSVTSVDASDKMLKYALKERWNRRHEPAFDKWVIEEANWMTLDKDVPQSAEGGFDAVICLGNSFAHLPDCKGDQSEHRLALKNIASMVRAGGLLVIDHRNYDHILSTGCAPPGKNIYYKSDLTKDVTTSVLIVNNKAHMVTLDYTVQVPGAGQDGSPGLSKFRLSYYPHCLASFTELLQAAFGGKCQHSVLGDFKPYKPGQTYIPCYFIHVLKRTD
ncoa5_human NCOA5, sequence (Q9HCD5 whole entry): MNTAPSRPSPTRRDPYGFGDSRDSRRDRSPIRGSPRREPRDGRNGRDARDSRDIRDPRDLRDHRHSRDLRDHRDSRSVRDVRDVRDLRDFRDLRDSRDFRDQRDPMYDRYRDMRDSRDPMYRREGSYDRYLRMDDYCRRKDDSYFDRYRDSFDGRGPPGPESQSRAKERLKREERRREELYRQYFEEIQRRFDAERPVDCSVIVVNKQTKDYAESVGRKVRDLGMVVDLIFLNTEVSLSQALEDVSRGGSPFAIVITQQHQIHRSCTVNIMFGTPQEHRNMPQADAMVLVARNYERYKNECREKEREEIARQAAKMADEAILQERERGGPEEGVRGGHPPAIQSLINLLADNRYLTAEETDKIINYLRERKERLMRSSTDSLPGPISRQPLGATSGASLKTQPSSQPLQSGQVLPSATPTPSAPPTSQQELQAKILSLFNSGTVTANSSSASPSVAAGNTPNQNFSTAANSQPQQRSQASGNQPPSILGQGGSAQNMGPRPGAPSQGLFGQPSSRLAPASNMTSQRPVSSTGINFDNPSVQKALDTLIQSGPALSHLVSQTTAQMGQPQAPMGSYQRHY
mif_human MIF, sequence (P14174 whole entry): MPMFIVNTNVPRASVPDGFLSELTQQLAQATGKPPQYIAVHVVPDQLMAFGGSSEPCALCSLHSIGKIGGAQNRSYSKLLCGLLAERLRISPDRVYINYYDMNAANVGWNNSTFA

effect of a mutation on the interaction [1]: with no effect
effect of a mutation on the interaction [2]: with no effect
effect of a mutation on the interaction [3]: with no effect
Substance: FAD synthase (Homo sapiens), Q8NFF5 R228H

effect of a mutation on the interaction [4]: with no effect
effect of a mutation on the interaction [5]: with no effect
effect of a mutation on the interaction [6]: with no effect
effect of a mutation on the interaction [7]: with no effect
effect of a mutation on the interaction [8]: with no effect
Substance: Homeobox protein Hox-A1 (Homo sapiens), P49639 S98R

effect of a mutation on the interaction [9]: with no effect
effect of a mutation on the interaction [10]: with no effect
effect of a mutation on the interaction [11]: with no effect
effect of a mutation on the interaction [12]: with no effect
effect of a mutation on the interaction [13]: with no effect
effect of a mutation on the interaction [14]: with no effect
effect of a mutation on the interaction [15]: with no effect
effect of a mutation on the interaction [16]: with no effect
effect of a mutation on the interaction [17]: with no effect
effect of a mutation on the interaction [18]: with no effect
effect of a mutation on the interaction [19]: with no effect
effect of a mutation on the interaction [20]: with no effect
effect of a mutation on the interaction [21]: with no effect
effect of a mutation on the interaction [22]: with no effect
effect of a mutation on the interaction [23]: with no effect
effect of a mutation on the interaction [24]: with no effect
effect of a mutation on the interaction [25]: with no effect
effect of a mutation on the interaction [26]: with no effect
effect of a mutation on the interaction [27]: with no effect
effect of a mutation on the interaction [28]: with no effect
effect of a mutation on the interaction [29]: with no effect
effect of a mutation on the interaction [30]: with no effect
effect of a mutation on the interaction [31]: with no effect
effect of a mutation on the interaction [32]: with no effect
effect of a mutation on the interaction [33]: with no effect
effect of a mutation on the interaction [34]: with no effect
effect of a mutation on the interaction [35]: with no effect
effect of a mutation on the interaction [36]: with no effect
effect of a mutation on the interaction [37]: with no effect
effect of a mutation on the interaction [38]: with no effect
effect of a mutation on the interaction [39]: with no effect
effect of a mutation on the interaction [40]: with no effect
effect of a mutation on the interaction [41]: with no effect
effect of a mutation on the interaction [42]: with no effect
Substance: Protein N-terminal glutamine amidohydrolase (Homo sapiens), Q96HA8 A52G

effect of a mutation on the interaction [43]: with no effect
effect of a mutation on the interaction [44]: with no effect
effect of a mutation on the interaction [45]: with no effect
effect of a mutation on the interaction [46]: with no effect
effect of a mutation on the interaction [47]: with no effect
Substance: Ubiquitin-conjugating enzyme E2 D4 (Homo sapiens), Q9Y2X8 G27S

Reference: IntAct's records for PubMed 31515488
